Assay results: paper PMC3249379
Where two headings read alike, the source gives them in different places.

Key:
Assay in all cases: AUC
[1] = molecular target: GluA4 flip ectodomain, wild type (NTD and LBD in a tandem array) (R. norvegicus)
[2] = molecular target: GluA4 flip ectodomain, L484Y mutant (R. norvegicus)
[3] = molecular target: GluA4 flip ectodomain, L484Y mutant (R. norvegicus); remark: listed apart in the source

GluA4 flip ectodomain, wild type (NTD and LBD in a tandem array) (domain or fragment)
Kd [1]: 300 nM | stoichiometry N [1]: 2

GluA4 flip ectodomain, L484Y mutant (domain or fragment)
Kd [2]: 1500 nM | Kd [3]: 1100 nM | stoichiometry N [3]: 4
